Reference: the supplement of paper PMC10567573
± gives the standard deviation.

Assay: protein stability index of a GFP-peptide fusion (GPS, HEK-293T) (PSI 1-6); higher = more stable
Conditions: c terminus: a fixed tail appended
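Also: 24-mer peptide tiles fused after GFP, lentivirally expressed, FACS-sorted into six equal bins by GFP/DsRed ratio, decoded by Illumina sequencing, PSI is the read-weighted mean bin number.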

Sequence	protein stability index (treatment: DMSO)	protein stability index (treatment: MLN4924 1 uM, 8 h)
HKTHQAPASASSLPGTGAQLPPQP [DYRK1B]	4.55 ± 0.43	4.97 ± 0.22
DITEGDRKPDYTAYVAMIPQCIKE [ATF4]	3.28 ± 0.27	3.38 ± 0.37
KQDSLVILTIMATLKIRNSNFYTV [TMEM106C]	3.25 ± 0.41	3 ± 0.67
YNISEFTRRHPGGSRVISHYAGQD [FADS1]	3.54 ± 0.15	3.42 ± 0.26
ARKLTAQRRASTVSSVTQVEVDEN [NET1]	5.15 ± 0.39	5.14 ± 0.33
LLIFGKELSAIGSDTTPLPSWAAL [SNX8]	2.42 ± 0.37	2.13 ± 0.28
NKLQYHAGLASGLLNQQSLKRSAN [MED27]	3.47 ± 0.25	3.51 ± 0.29
AKINIVYQELNYRSVEEAPVYSVP [SCNN1D]	2.17 ± 0.14	2.15 ± 0.45
APGLYNHLPWQYHAGQGGLFYSAE [CCDC3]	2.69 ± 0.084	3.25 ± 1.1
IRSPRPASVATWAIFVHRVGQPSI [CTBP1-DT]	2.46 ± 0.5	2.47 ± 0.31
LSQSPEPGRRGDPDTAPPSERPLE [RTN2]	5.56 ± 0.24	5.56 ± 0.15
ALKEDFGFKHRLWVYSGRRGVHCW [PRIM1]	2.28 ± 0.65	2.48 ± 0.61
VDSFETQRNGLVFIYDMCGSNYAN [PTPN9]	2.23 ± 0.24	2.05 ± 0.28
MESKRLRLLQEEDRRKKIARMGFN [DCAF4]	3.44 ± 0.36	3.73 ± 0.48
IYNSNIFTDPFFIVETLCIIWFSF [KCNA1]	3.23 ± 0.2	3.17 ± 0.29
QELLDTVLVNLVPAHKNLNKQAYD [PDS5B]	2.95 ± 0.34	3.02 ± 0.3
QYFVVDPMAEYNMPQYILREFKVT [PTPRD]	2.48 ± 0.56	2.15 ± 0.16
RTCFSPASDGSDFTFLRPLSVQQP [PCDHGC5]	2.77 ± 0.23	2.78 ± 0.22
DTDAEGDDFELLDQSELSQLDPAS [RETREG3]	5.61 ± 0.065	5.57 ± 0.16
EESASRQRFGEALQDQEKAWGFPE [ELOA2]	5 ± 0.16	5 ± 0.31
EDEGFVREEEDRALPENEFKKQIW [KCNA4]	5.18 ± 0.17	5.19 ± 0.2
TYGRRAKGHNTPKDIAHFWELGGG [DYNC2LI1]	2.84 ± 0.11	3.07 ± 0.18

Sequence	protein stability index (treatment: DMSO)	protein stability index (treatment: MLN4924 1 uM, 8 h)
YRGAVYADSGNFKRCINLWKYALD [FEM1C]	2.32 ± 0.08	2.33 ± 0.18
SSFQDLLGDALAGPPRAPGRSGWP [HES6]	3.13 ± 0.12	3.11 ± 0.18
CLEPLEQKLQEITRCKSSEEKKPG [TRIM39]	4.89 ± 0.23	5.08 ± 0.18
HTGERPYECTVCKKRFTRRSHLIG [ZNF449]	2.67 ± 0.36	3.17 ± 0.88
GDQEGPRPARSTLDELLGRGMATK [FBF1]	4.62 ± 0.27	4.73 ± 0.11
PNQAMVVAAAGDACPPQHVPPKDS [TBC1D10A]	5.5 ± 0.14	5.37 ± 0.12
HRSACSSAAVRGHPRALPPDARPH [HAGHL]	3.81 ± 0.19	3.77 ± 0.17
EGIKVEDLLFIVDTMLEEVENKEK [CEP70]	3.07 ± 0.27	3.03 ± 0.42
PPPSAPASEYCPGKLSWGTMARAL [WDR88]	3.02 ± 0.24	2.97 ± 0.4
PDDFVPPVPPPSYFATFYSCTPRM [FAM189A2]	2.65 ± 0.15	2.7 ± 0.32
TDAGKAFCMFYAVLGIPLTLVMFQ [KCNK9]	3.35 ± 0.4	3.06 ± 0.31
TLLVCGKKAYDYFQAKKIPIVSSL [PDZK1]	2.6 ± 0.75	2.58 ± 0.13
QVENWSAFAPDFKELDENVEYEER [RBBP5]	5.05 ± 0.36	5.15 ± 0.48
VLENLEDSCVLTGPDDSLWDKHAC [TRIB3]	3.69 ± 0.16	3.87 ± 0.26
LISNASDALDKIRYESLTDPSKLD [HSP90AB1]	3.75 ± 0.34	3.85 ± 0.41
NFARLQTCISELRMLQREGCFRSQ [M1AP]	2.15 ± 0.31	2.13 ± 0.2
NTLEGKKPGNNEGSGAPSPLSKSS [SNAP91]	5.41 ± 0.23	5.35 ± 0.28
LRADNAFMLLTQARLFDEPQLASL [BTBD1]	2.46 ± 0.85	2.34 ± 0.47
RTALEYCKLILSLEPDEDPLCMLL [TCF25]	2.24 ± 0.36	2.32 ± 0.3
LSSVDMRMTSSPSSIPRRDDFFRH [RAD54B]	3.21 ± 0.28	3.38 ± 0.34
KNYNYGMHYCAVPPRGPLGQGAMF [NEUROD6]	2.18 ± 0.44	2.47 ± 0.34
HADCDRRSRIEALELLGASFANDR [FEM1B]	3.98 ± 0.31	4.17 ± 0.19

Sequence	protein stability index (treatment: DMSO)	protein stability index (treatment: MLN4924 1 uM, 8 h)
GLEQFINKVAGHPLAQNERCLHMF [SNX3]	2.72 ± 0.61	2.21 ± 0.11
VLVLIFNAAKTCPTMPALFSDHTF [INTS4]	3.16 ± 0.42	3.16 ± 0.48
GVSYTFDNEDSELNGDYGENIYPY [MIA2]	3.93 ± 0.061	3.77 ± 0.55
VIRKNIVKKCLELFSELAEDKENY [HSP90AB1]	2.33 ± 0.046	–
SSCSSTSGGGGGGGGGGGGGKSGG [CCDC6]	5.17 ± 0.065	5 ± 0.51
DIKRGIPNYEFKLGKITFIRNSRP [UFD1]	2.27 ± 0.17	2.34 ± 0.21
HGRHIDCPATWGPSVEQAADSLDF [FOXJ1]	4.31 ± 0.22	4.58 ± 0.11
GSGYEKLGPSRDPDPLNICVFILL [RTP4]	3.15 ± 0.2	2.45 ± 0.68
RLPWAGQLTKELPLSPAFFGEDGI [PBXIP1]	3.43 ± 0.44	3.49 ± 0.28
TIGFGDYVALQTKGALQKKPLYVA [KCNK9]	2.29 ± 0.19	2.63 ± 0.28
ANSSSEAPFPNVSTSLLTSAGNRT [ADAMTSL2]	4.52 ± 0.36	4.49 ± 0.29
RTDPNGDYIRRYLPVLRGFPAKYI [CRY1]	2.27 ± 0.3	2.42 ± 0.39
FTDPFFIVETLCIIWFSFELVVRF [KCNA1]	3.26 ± 0.13	3.18 ± 0.69
TWRLPDVSEAGGSGRLSASWEPLS [FCHO1]	3.38 ± 0.13	3.24 ± 0.26
GKVAVGQDDLTVVLNEEGICTQKC [VPS39]	4.91 ± 0.22	4.79 ± 0.28
CSPTAHDRECKLPPPSAPASEYCP [WDR88]	4.55 ± 0.088	4.584 ± 0.039
IDILWRQDIDLGAGREVFDYSHRQ [NFE2L1]	2.24 ± 1	2.49 ± 0.34
FSDGEKCRREAFRRLGNGVSDDLS [PHTF1]	4.05 ± 0.13	3.82 ± 0.17
DTFQKELMCFDPDTDKWIQKAPMT [KLHL13]	4.16 ± 0.28	3.87 ± 0.15
RADCASESACSSDSLDEARSSGSE [PWWP2B]	5.42 ± 0.3	5.53 ± 0.26
FPEELHRKAALEQDLAFWYGPRWQ [HMOX1]	2.3 ± 0.25	2.62 ± 0.31
